Data on 54 variants can be found in the RNAGym collection of RNA variant scans (doi:10.7554/elife.80360).

The labels stand for the following.
B1: Twister Ribozyme (parent)
chain: AACACUGCCAAUGCCGGUCCCAAGCCCGGAUAAAAGUGGAGGGGGCGG

Variants of B1 are the subject of the data set. The data set is described as follows: self-cleavage, relative activity (ratio to wild type); higher = more cleavage; co-transcriptional.
Consider AACACUGCCAAUGCCGGUCCCAAGCCCGGAAAAAUGUGGAGGGGGCGG [U31A A35U], for which the self-cleavage is 1.09.
The figure for AUCAUUGCCAAUGCCGGUCCCAAGCCCGGAUAAAAGUGGAGGGGGCGG [A2U C5U] is 0.448.
Turning to AACUCUGCCAAUGCCGGUCCCAAGCCCCGAUAAAAGUGGAGGGGGCGG [A4U G28C], the self-cleavage came to 0.0611.
The same measure for AACACUGCCAAUGCCUGUCCCAAGCCCGGAUAAAAGUGGAGGGGGCGC [G16U G48C]: 1.06.
The same measure for AACACUGCCAAUGCCGGUCCCAAGCCCGGAUAAAAGUGGAGGCGGCGA [G43C G48A]: 0.198.
The figure for AACACCGCCAAUGCCGGUCCCAAGCCCGGAGAAAAGUGGAGGGGGCGG [U6C U31G] is 0.422; for AGCACUGCCAAUGCCGCUCCCAAGCCCGGAUAAAAGUGGAGGGGGCGG [A2G G17C] it is 0.0381; for AACACUGCCAAUGCCGGUCCCAAGCCCGGAUAAAAGUGGAGCGGGUGG [G42C C46U] it is 0.463.
For the variant AACACUGCCAAUGCCGGCCCCAAGCCCGGAUAAAAGUGGAGGGGGGGG [U18C C46G], the self-cleavage was 0.477.
The same measure for AACACUGCCAAUGCCGGUCGCAAGCCCGGAUAGAAGUGGAGGGGGCGG [C20G A33G]: 0.0756; for AACACGGCCAAUGCCGGUCCCAAGCCCGCAUAAAAGUGGAGGGGGCGG [U6G G29C]: 0.139; for AACACUGCCAAUGCCGGUCCCAAGCCCGGUUAAAAGUGGAGGGGUCGG [A30U G45U]: 0.798.
The figure for AACAUUGCCAAUGUCGGUCCCAAGCCCGGAUAAAAGUGGAGGGGGCGG [C5U C14U] is 0.68; for AACACUGCCAAUGCCUGUCCCAAGCCCGGAAAAAAGUGGAGGGGGCGG [G16U U31A] it is 1.05; for AACACUGCCAAUGCCGGUCUCAAGCCCGGGUAAAAGUGGAGGGGGCGG [C20U A30G] it is 0.823.
The same measure for AACACUGCCAAUGCCGGUCCCACGCCCGGAUAAAAGUGGAGAGGGCGG [A23C G42A]: 0.113; for AACACUGCCAAAGCCGGUCCCAAGCCCGGAUAACAGUGGAGGGGGCGG [U12A A34C]: 0.36; for AACACUGCCAAUGCCGGUCCCAAGCCAGGAUAAAUGUGGAGGGGGCGG [C27A A35U]: 0.742.
Take AACACUGCCAAUGCCGGUCCCAAGCCCGGAUAAAACUGGAGCGGGCGG [G36C G42C]: the self-cleavage came out at 0.189.
The figure for AACACUGCCAAUGGCGGUCCCAAGCCCGGAUACAAGUGGAGGGGGCGG [C14G A33C] is 0.176.
The figure for GACACUGCCAAUGCCGGUCCCAAGCCGGGAUAAAAGUGGAGGGGGCGG [A1G C27G] is 0.178.
The same measure for AACACUGCCAAUGCCGGUCCCAAGCCCGGAAUAAAGUGGAGGGGGCGG [U31A A32U]: 1.05.
Regarding AACACUGCCAAUGACGGUCCCAAGCCCGGAUAAAAGUGGAGGGAGCGG [C14A G44A], the self-cleavage is 0.838.
The same measure for AACACUGCCAACGCCCGUCCCAAGCCCGGAUAAAAGUGGAGGGGGCGG [U12C G16C]: 0.482; for GACACUGCCAAUGGCGGUCCCAAGCCCGGAUAAAAGUGGAGGGGGCGG [A1G C14G]: 0.168.
The same measure for AAGACUGCCAAUGCCGGUCCCAAGCCCGGAUAAAAGUAGAGGGGGCGG [C3G G38A]: 0.559; for AACACUGCCAAUGCCGGUCACAAUCCCGGAUAAAAGUGGAGGGGGCGG [C20A G24U]: 0.0913; for AACACUGGCAAUGCCGGUCCCAAGCCCCGAUAAAAGUGGAGGGGGCGG [C8G G28C]: 0.083.
The figure for AACACAGCCAAUGCCGUUCCCAAGCCCGGAUAAAAGUGGAGGGGGCGG [U6A G17U] is 0.101; for AACACUGCCAAUGCAGGUCCCAAGCCCGGAUAAAAGUUGAGGGGGCGG [C15A G38U] it is 0.355.
As to AGCACUGCCAAUGCCGGUCCCAAGCUCGGAUAAAAGUGGAGGGGGCGG [A2G C26U], the self-cleavage came out at 0.08.
Consider AACACUGCCAAUGCCGGUCCCAAGCCCGGAUAAAAGUCGACGGGGCGG [G38C G41C], for which the self-cleavage came out at 0.181.
Turning to AACAAUGCCAAUGCCGGUCCCAAGCCCGGAUAAAAGUGGUGGGGGCGG [C5A A40U], the self-cleavage was found to be 0.107.
The figure for AACACUGCCAAUGCCGGUCGCAAGACCGGAUAAAAGUGGAGGGGGCGG [C20G C25A] is 0.0525; for AACACUGCCAAUUCCGGUCCCAAGCCCGGAUUAAAGUGGAGGGGGCGG [G13U A32U] it is 0.489; for AACACUGCCAAUGCCGGUCCCAAGCCCGAAUAAAAGUGGAGGGGGCGG [G29A] it is 0.915.
The same measure for AACACUGCCCAUGCCGGUCCCAAGCCCGAAUAAAAGUGGAGGGGGCGG [A10C G29A]: 0.86; for AACACUGCCAAUGCCGGUCCCAUGACCGGAUAAAAGUGGAGGGGGCGG [A23U C25A]: 0.0618; for AACAAUGCCAAUGCCGGUCCCAAGCCCGUAUAAAAGUGGAGGGGGCGG [C5A G29U]: 0.51.
The same measure for AGCACUGCCUAUGCCGGUCCCAAGCCCGGAUAAAAGUGGAGGGGGCGG [A2G A10U]: 0.346; for AAGACUGCCAAUACCGGUCCCAAGCCCGGAUAAAAGUGGAGGGGGCGG [C3G G13A]: 0.138.
In the case of AACACUGCCAAUGCCGUUCCCAAACCCGGAUAAAAGUGGAGGGGGCGG [G17U G24A], the self-cleavage is 0.101.
AACACUGCCAAUGCCUGUCCCAAGCCCGGAUAACAGUGGAGGGGGCGG [G16U A34C]: the self-cleavage was 0.111.
The same measure for AACACUGCCAAUGCCGGUCCCAAGCCCGGAUAAACGUGGGGGGGGCGG [A35C A40G]: 0.18; for AACACUGCCAAUGCCGGUACCAAGCCCGGAUAAAAGUGGAGGGGGAGG [C19A C46A]: 0.197; for AACACUGCCAAUGCCGUUCCCAAGCCCGGAUAAAAGUGGAGGGUGCGG [G17U G44U]: 0.374.
The figure for AACCCUGCCAAUGCCGGUCCCAAGCCCGGAUAAAAGUGGAGGUGGCGG [A4C G43U] is 0.103.
The same measure for AACACUGCCAAGGCCGCUCCCAAGCCCGGAUAAAAGUGGAGGGGGCGG [U12G G17C]: 0.0934.
In the case of AACACUGCCAAUGCCGGACCCAAGCCCGGAUAAAAGUGUAGGGGGCGG [U18A G39U], the self-cleavage amounted to 0.144.
The figure for AACACUGCCAAUGCAGGCCCCAAGCCCGGAUAAAAGUGGAGGGGGCGG [C15A U18C] is 0.104; for AAAACUGCCAAUGCCGGUCCCAAGCCCAGAUAAAAGUGGAGGGGGCGG [C3A G28A] it is 0.183; for UACACUGCCAAUGCCGGUCCCAAGCCCGGAUAAAAGUGGAGGGCGCGG [A1U G44C] it is 0.0624.
The same measure for AACACUGCCAAUGCCUGUCCCAAGCCCGGAUAAAUGUGGAGGGGGCGG [G16U A35U]: 0.948.
The figure for AACACUGCCAAUGCCGGUCCCAAGCCCGGGUAAAAGUGGACGGGGCGG [A30G G41C] is 0.37.
